Target: T1, MORC4 ATPaseCW cassette (aa 29-486) (human, UniProt Q8TE76 29-486)
T1 chain: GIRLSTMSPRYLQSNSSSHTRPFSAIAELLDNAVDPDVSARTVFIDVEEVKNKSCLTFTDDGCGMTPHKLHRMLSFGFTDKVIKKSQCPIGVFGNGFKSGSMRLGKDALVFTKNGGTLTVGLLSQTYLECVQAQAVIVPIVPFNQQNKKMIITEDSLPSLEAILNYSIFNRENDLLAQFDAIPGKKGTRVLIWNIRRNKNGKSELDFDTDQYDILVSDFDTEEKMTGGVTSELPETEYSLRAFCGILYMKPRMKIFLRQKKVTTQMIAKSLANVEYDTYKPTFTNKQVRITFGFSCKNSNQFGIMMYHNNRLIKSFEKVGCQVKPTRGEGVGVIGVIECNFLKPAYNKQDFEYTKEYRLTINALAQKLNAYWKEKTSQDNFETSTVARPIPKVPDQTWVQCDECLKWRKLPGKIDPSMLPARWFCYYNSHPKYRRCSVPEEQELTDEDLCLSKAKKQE

Kd: 12 µM
Binder: ARTKQTARKSTG [unmodified histone H3 peptide (aa 1-12 of H3)]

Reference: PMC7596504 (2020)
